17 molecules from patent publication US20240116985A1 (published 2024) can be followed below.

The assay deals with T1, full-length beta-Catenin (Uniprot ID P35222) (Homo sapiens (Human), UniProt P35222 1-781).
T1 construct: also called bCat; B-Catenin
T1 sequence: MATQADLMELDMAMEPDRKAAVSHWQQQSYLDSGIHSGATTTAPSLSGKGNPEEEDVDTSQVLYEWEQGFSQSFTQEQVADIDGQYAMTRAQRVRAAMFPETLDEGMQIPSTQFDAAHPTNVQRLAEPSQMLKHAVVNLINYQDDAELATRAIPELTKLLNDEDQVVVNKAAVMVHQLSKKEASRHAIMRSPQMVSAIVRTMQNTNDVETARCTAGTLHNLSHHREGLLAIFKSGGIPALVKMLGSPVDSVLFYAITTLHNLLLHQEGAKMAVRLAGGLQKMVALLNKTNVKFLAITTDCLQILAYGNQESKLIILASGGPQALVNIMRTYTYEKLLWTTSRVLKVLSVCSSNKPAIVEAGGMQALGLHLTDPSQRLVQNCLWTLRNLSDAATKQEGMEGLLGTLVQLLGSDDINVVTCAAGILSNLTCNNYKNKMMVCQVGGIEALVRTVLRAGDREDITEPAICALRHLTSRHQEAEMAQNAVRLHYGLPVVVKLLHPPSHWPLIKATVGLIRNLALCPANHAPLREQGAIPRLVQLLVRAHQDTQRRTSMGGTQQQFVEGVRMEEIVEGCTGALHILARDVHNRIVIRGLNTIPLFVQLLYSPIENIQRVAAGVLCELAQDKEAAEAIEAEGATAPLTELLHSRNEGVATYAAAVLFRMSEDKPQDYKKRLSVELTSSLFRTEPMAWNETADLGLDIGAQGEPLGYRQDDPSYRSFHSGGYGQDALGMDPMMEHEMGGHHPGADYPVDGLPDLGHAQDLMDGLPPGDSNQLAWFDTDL
Briefly: fluorescence polarization competition; 10 nM full-length beta-catenin, competitor 10 nM 5FAM-TCF4(10-53). Here is the method:
The plate was incubated protected from light for 60 minutes at 20° C. prior to read. Reads were performed on a CLARIOstar plate reader (BMG Labtech) in duplicate, and data were fitted to a 1:1 binding model with hill slope using an in-house script. All provided concentrations are final concentrations.

Starred links: 1 amine or outer side, 2 acyl side, 3 side chain; linkers in the order of their positions; H or OH if unused. Positions of bridges follow the written chain, without caps; N, C: chain ends. Non-standard residues stand in square brackets, D forms with d. Primed or numbered codes have the meaning given here. B5(4) = 2,2-bis(4-pentenyl)glycine = 2-amino-2-(pent-4-en-1-yl)hept-6-enoic acid (stitching residue), C=CCCCC(CCCC=C)(N[*:1])C(=O)[*:2]; B5(9) = 2-amino-2-(pent-4-en-1-yl)hept-6-enoic acid (2,2-bis(4-pentenyl)glycine), C=CCCCC(CCCC=C)(N[*:1])C(=O)[*:2]; B5(19) = 2-amino-2-(pent-4-en-1-yl)hept-6-enoic acid (bis(4-pentenyl)glycine), C=CCCCC(CCCC=C)(N[*:1])C(=O)[*:2]; 23FF = 2,3-difluoro-L-phenylalanine, O=C([C@H](Cc1cccc(F)c1F)N[*:1])[*:2]; Phe(3-CF3) = N[C@@H](Cc1cccc(C(F)(F)F)c1)C(=O)O; Phe(3,5-F2) = N[C@@H](Cc1cc(F)cc(F)c1)C(=O)O; Phe(3-F) = N[C@@H](Cc1cccc(F)c1)C(=O)O; Bta = N[C@@H](Cc1csc2ccccc12)C(=O)O; αAllylPro = C=CC[C@@]1(C(=O)O)CCCN1; S8 = C=CCCCCCC[C@](C)(N)C(=O)O

B1: I-396 (peptide)
peptide: XDAXDHAAFVXFXQ
modifications: not fully specified; Ac-PL3-Asp-Ala-B5-Asp-His-Ala-Ala-Phe-Val-S8-3FF-BztA-Gln-NH2: N-terminal acetyl, C-terminal amide; non-natural PL3(1), B5(4), S8(11), 3FF(12), BztA(13); staples PL3-B5 and B5-S8
notes: Stapled peptide
As for B1, the concentration for a half-maximal effect (EC50) is 3.43 µM. This counts as single-digit micromolar.

B2: I-389 (peptide)
peptide: Ac-[αAllylPro]DA[B5(9)]DEAAFV[S8][23FF][Bta]Q-NH2
modifications: staple 1-4, 4-11; also: later eluting HPLC isomer, E/Z not assigned
notes: Stapled peptide
As for B2, the EC50 worked out at 5 µM.

B3: I-374 (peptide)
peptide: Ac-[αAllylPro]DA[B5(4)]DDAA[Phe(3-CF3)]A[S8]F[Bta]Q-NH2
modifications: staple 1-4, 4-11; not fully specified; printed as Ac-PL3-Asp-Ala-B5-Asp-Asp-Ala-Ala-3F3MeF-Ala-S8-Phe-BztA-Gln-NH2
notes: Stapled peptide
Molecule B3 displayed an EC50 of 3.01 µM.

B4: I-394 (peptide)
peptide: Ac-[αAllylPro]DA[B5(9)]DEAAFV[S8][Phe(3,5-F2)][Bta]Q-NH2
modifications: staple 1-4, 4-11
notes: Stapled peptide composition (olefin metathesis)
Molecule B4 yielded a concentration giving a half-maximal response (EC50) of 5 µM. This EC50 lies about 1.7-fold higher than the previous one.

B5: I-380 (peptide)
peptide: Ac-[αAllylPro]DA[B5(9)]DDAA[Phe(3-CF3)]Q[S8]F[Bta]Q-NH2
modifications: staple 1-4, 4-11; not fully specified; printed as Ac-PL3-Asp-Ala-B5-Asp-Asp-Ala-Ala-3F3MeF-Gln-S8-Phe-BztA-Gln-NH2
notes: Stapled peptide
The molecule B5 displayed an EC50 of 0.552 µM.

B6: I-364 (peptide)
peptide: Ac-[αAllylPro]DA[B5(19)]DDAAHA[S8]F[Bta]Q-NH2
modifications: staple 1-4, 4-11; also: later eluting HPLC staple isomer
notes: Stapled peptide
Regarding B6, a half-maximal effect (EC50) was put at 5 µM. This EC50 lies about 9.1-fold higher than the previous one.

B7: I-363 (peptide)
peptide: Ac-[αAllylPro]DA[B5(19)]DDAAHA[S8]F[Bta]Q-NH2
modifications: staple 1-4, 4-11; also: earlier eluting HPLC staple isomer
notes: Stapled peptide
The molecule B7 came in with an EC50 of 5 µM.

B8: I-372 (peptide)
peptide: Ac-[αAllylPro]DA[B5(4)]DEAAFA[S8][Phe(3-F)][Bta]Q-NH2
modifications: staple 1-4, 4-11
notes: as for B4
B8 had an EC50 of 2.09 µM.

B9: I-388 (peptide)
peptide: Ac-[αAllylPro]DA[B5(9)]DEAAFV[S8][23FF][Bta]Q-NH2
modifications: staple 1-4, 4-11; also: earlier eluting HPLC isomer, E/Z not assigned
notes: Stapled peptide
For the molecule B9, a half-maximal effect (EC50) was put at 5 µM.

B10: I-379 (peptide)
peptide: Ac-[αAllylPro]DA[B5(9)]DDAA[Phe(3-CF3)]Q[S8]F[Bta]Q-NH2
modifications: staple 1-4, 4-11; not fully specified; printed as Ac-PL3-Asp-Ala-B5-Asp-Asp-Ala-Ala-3F3MeF-Gln-S8-Phe-BztA-Gln-NH2
notes: Stapled peptide
The molecule B10 had an EC50 of 1.34 µM.

B11: I-391 (peptide)
peptide: Ac-[αAllylPro]DA[B5(9)]DEAA[23FF]V[S8]F[Bta]Q-NH2
modifications: staple 1-4, 4-11; also: later eluting HPLC isomer, E/Z not assigned
notes: Stapled peptide
Molecule B11 had a concentration giving a half-maximal response (EC50) of 1.91 µM.

B12: I-382 (peptide)
peptide: XDAXDNAAFVXFXQ
modifications: not fully specified; Ac-PL3-Asp-Ala-B5-Asp-Asn-Ala-Ala-Phe-Val-S8-3FF-BztA-Gln-NH2: N-terminal acetyl, C-terminal amide; non-natural PL3(1), B5(4), S8(11), 3FF(12), BztA(13); staples PL3-B5 and B5-S8
notes: Stapled peptide
The molecule B12 yielded a concentration giving a half-maximal response (EC50) of 2.06 µM.

B13: I-377 (peptide)
peptide: Ac-[αAllylPro]DA[B5(4)]DDAA[Phe(3-CF3)]A[S8]F[Bta]Q-NH2
modifications: staple 1-4, 4-11; not fully specified; printed as Ac-PL3-Asp-Ala-B5-Asp-Asp-Ala-Ala-3F3MeF-Ala-S8-Phe-BztA-Gln-NH2
notes: Stapled peptide
The molecule B13 showed an EC50 of 1.32 µM.

B14: I-381 (peptide)
peptide: XDAXDNAAFVXFXQ
modifications: not fully specified; Ac-PL3-Asp-Ala-B5-Asp-Asn-Ala-Ala-Phe-Val-S8-3FF-BztA-Gln-NH2: N-terminal acetyl, C-terminal amide; non-natural PL3(1), B5(4), S8(11), 3FF(12), BztA(13); staples PL3-B5 and B5-S8
notes: Stapled peptide
B14 had a half-maximal effective concentration (EC50) of 3.65 µM.

B15: I-375 (peptide)
peptide: Ac-[αAllylPro]DA[B5(4)]DDAA[Phe(3-CF3)]A[S8]F[Bta]Q-NH2
modifications: staple 1-4, 4-11; not fully specified; printed as Ac-PL3-Asp-Ala-B5-Asp-Asp-Ala-Ala-3F3MeF-Ala-S8-Phe-BztA-Gln-NH2
notes: Stapled peptide
For the molecule B15, the concentration for a half-maximal effect (EC50) turned out to be 3.01 µM.

B16: I-371 (peptide)
peptide: Ac-[αAllylPro]DA[B5(19)]DDAAFA[S8][Phe(3-F)][Bta]Q-NH2
modifications: staple 1-4, 4-11
notes: as for B4
As for B16, the EC50 was determined as 1.39 µM.

B17: I-390 (peptide)
peptide: Ac-[αAllylPro]DA[B5(9)]DEAA[23FF]V[S8]F[Bta]Q-NH2
modifications: staple 1-4, 4-11; also: earlier eluting HPLC isomer, E/Z not assigned
notes: Stapled peptide
The molecule B17 registered an EC50 of 3.42 µM.

What is called EC50 is the concentration that produces a half-maximal response. A lower EC50 goes with higher potency in that assay.
